In the DeepSol protein solubility set:

Assay: soluble on expression in E. coli; label from the status in PepcDB or PDB records

Sequence	soluble on expression in E. coli
MKYGYFDNDNREYVITRPDVPAPWTNYLGTEKFCTVISHNAGGYSFYNSPEYNRVTKFRPNATFDRPGHYVYLRDDDSGDYWSISWQPVAKSLDEAQYQIRHGLSYSKFQCDYNGIHARKTLFVPKGEDAEIWDVVIKNTSDQVRTISAFSFVEFSFSHIQSDNQNHQMSLYSAGTAYRPGLIEYDLYYNTDDFEGFYYLASTFDPDSYDGQRDRFLGLYRDEANPLAVEQGRCSNSAQTCYNHCGSLHKQFTLQPGEEIRFAYILGIGKGNGERLREHYQDVANIDAAFAAIKAHWDERCAKFQVKSPNQGLDTMINAWTLYQAETCVVWSRFASFIEVGGRTGLGYRDTAQDAISVPHANPEMTRKRIVDLLRGQVKAGYGLHLFDPDWFDPEKEDVAPSKSPTVVPTPSDEDKIHGIKDTCSDDHLWLIPTICKYVMETGETSFFDQMIPYADGGEASVYEHMKAALDFSAEYVGQTGICKGLRADWNDCLNLGGGESSMVSFLHFWALQEFIDLAKFLGKDQDVNTYTEMAANVREACETHLWDDEGGWYIRGLTKNGDKIGTAQQQEGRVHLESNTLAVLSGLASQERGEQAMDAVDEHLFSPYGLHLNAPSFSTPNDDIGFVTRVYQGVKENGAIFSHPNPWAWVAETKLGRGDRAMKFYDALNPYNQNDIIEKRIAEPYSYVQFIMGRDHQDHGRANHPWLTGTSGWAYFAVTNYILGVQSGFTGLSVDPCIPSDWPGFEVTRQWRGATYHIQVENPDHVSKGVKSITLNGAPIQGRIPPQAQGSDNQVVVVLGHHHHHH	soluble
MTIVAENLTKHLSNLSKRGPHRVLVGDLDYVGLPGKIYTPAEGNGLPAVVFAHDWMQDISRYHATLRHLASWGIVVAAPNTEKGISPNHRGFAADIETSLQVLTGVKLGAGNISVAPGRLGIVGHGMGAGAAVLAAADRPQIAAVAAIYPSQVSPSADVAARNVEAAGLVLGTEENAMFDFGNAAKLALEWKGPVAYREIDRASHQTLTENTLFKRVTGLGGTNTAARERIRGVVTGFLLHQLADQKKYSGFSEADATGKKVHSYWGEELQERASLTGDSKLTLFKS	not soluble
MGSDKIHHHHHHMLLIDKLSNHENFTNTEQRIADYILKNITDIPPMNIDKLSKVTYTSHSAVVRLTKKLGFEGFKDFKVAISEAVYSQTTNMNSVDANFPFDSNDSVSTISKKVAELSVESIQRTFAQLDERLIEEAANTIAKSERIFLFAQGDSQIRARSFQNKLVKLNRFAILGEEYSDEDWTAANLTKKDCAIFISYGGRISQYERMLTHFSENKIPSVVLTGNQKSPLIRLAQTAIVTTQNEYDFLKISTFSSQITFEYLLDTIFSVIYAKEYQQNIINLKNKFNLIQRGTLSEGLAKEHDSK	not soluble
MGSDKIHHHHHHMDLQNKTLLITGIDEFIGLRAAELAITQGMKVRGLQTSTNKDKAQKLGAEVIVGSITDAAIAHKACQGVDIVLHTEQLTEEAGPIKNFREINVNGAVNMAKAAKNAGVKCFVHLSSVMVYGFNYSDRITESGTLSGDNNPYCQTKIEAETELLPLNSPPDFGLIIIRAGDIYGPGSIPWIVRPILMMRQKLFAYANEGQGVINHVYIDNLIDAIFLAVEKDAYGEIFNITDGEETSWKEYFMRLAAMEGASAPMSIPKDEMKLFLKLRNQGQKLFRKKADILPESVDFMTRPYAYSITKAQTILDYKPKVDLEQGLSQTKIWLQNTDIQKLVK	not soluble
MSLIYPEKNREVLVQLMNQSKNASLIQAWIDDGNTTIAPEKIQVTFILTPPVSRVAGGSGQQLKIRKMPNNLPHNKESLFYLNVLDIPPNNPQNAGKNKIKLALQNRIKLLWRPSGIAPVDKKSLSQLNIKKKNNAISINNETANWITVTTIKAQNVKVNNESILLPPFSHNDITLKNNHASEYELTVVDDYGNNIHSKIAAREGHHHHHH	not soluble
MPVDRGAVRDAAKYLRGVRPLDPAALREYVPGQPHEAVVRQVLREQAADLGIIERADGTFVVPPEEPVGPPFNGVSALPERYERVVEAELTAAYGPDWHRGDTGDSLRETIRRFKDDYYRRNPVEYDREVALGYAVYHLAGYYAAVQYVLAGLARDGLLGHDLRVLDLGAGVGGPAVGLFDFLPDEALVEYHAVEPSAAADVLDALLAETPRNVHTTIHRETAESFQPAGEYDLVLACSVLSELDDAASVLRKYADAMAADGTALALAPADKHTSTHLRAVERAVEDDPFTVYGPTPRLWPDRRPTDSGWSFDERPAVEVPAVQSRLADASQDPGEFRHTDVRFSYSLLRRDDRRRHAVELSGDRLLALGDADDRVTDRADLLVAKLSRNLAGADANPVFRVSDGSQTTDCYAVLVRPTSLNGGIEAADYGDLVSIEDALVLWNDDEDAYNLVVDEETVVDAV	not soluble
MSATTTLKEQVLTTLKREQANAVVMYLNYKKYHWLTYGPLFRDLHLLFEEQGSEVFAMIDELAERSLMLDGQPVADPADYLKVATVTPSSGQLTVKQMIEEAIANHELIITEMHQDAEIATEAGDIGTADLYTRLVQTHQKHRWFLKEFLAKGDGLVS	soluble
MTKVSIIVPVYNTKNYVPRLLTSIEKQTYTNWELILVDDHSNDGTYELLLEFKDRYPNKVEVLKTPKPRSGPMIGKNMGIEVSSGKFLAFVDSDDWWSETFLKDTVSNIKSFGGVSTEYYDVFEDSDKKVHVKASKHGVVSWEDVLKLKARFGNGNSLLRRKIVENYGIRFPEHLWYSEDIYFYTQYLSVIDRIYVVPSPDFYHLVRGASMVRSDKIKQESKIEQTIRVYEEVCTRIQEISKVSDEVCKLLKSYQMPYSIMTYITSVSDSLGRAEARKLFWKYLDYLKGYRLTRSHQSYLTLLWILDLFIPIRGILRRLIGLEHHHHHH	soluble
SNAGMKAADFTYVTVHGDNSRMSRLKAQYTMLFFYDPDCSNCRKFEKLFAEIPAFVEMVENGTLRVLAIYPDENREEWATKAVYMPQGWIVGWNKAGDIRTRQLYDIRATPTIYLLDGRKRVILKDTSMEQLIDYLATQAGK	soluble
MAHHHHHHMLHNGKKNPTQAVDDGNPRKSKHREVGSHCKGLDKKENINKSGEEHIKKVEGRENCEPHDIKRRGEIDKVLIQCEELQRKELEALKLIYVRDRELVIQNENDEKRDTIIHMQLNDENISDNVINLTFELPKDYPLKSFLLIDINVKNFTPDMNNYLNQEVYKDMPNYIAHENSILSIIYRINELVENIQNSKKTSVDHSYLSSEEREEYVEEGAFDPSEDQLIKDHVPFLYCSGMTYSHHRRVLARRLCYSHHILSLVKRTYIIKWAKDLKIGGYSKIGYPGIIICEGPKEEVDFYINSLNKLRWKHFDCRGMEDIILKEYEDLDDARVLPRTMYELDPKGMSTLSNICTECGLRDLFLTSMKIYHT	not soluble
MAAKLQKWRNLAGRLDLMNRSGAVSTRRFLHEGPDTVEELLERHLAKKEKPIIDHDEAEFLNRRRLTSTRREALSLYRDILRATRFFTWIDSRGNLWRDVLRENARKEFEAARFETDPEVITRLLIGGSDAVSSALDKLAEKQREMIEKQRRGDQR	soluble
MGSDKIHHHHHHMKVVSLLTDFGDFYPGVMKGVILSLAPEARIVDITHSVEPQNILQGAFLLYHSFRYFRNAVHVAVVDPGVGSERRALVIEGKNHFFVGPDNGILYPSAVEDGIKAAYSIKEEISELVGELSSTFHGRDIFAPAAAMVVRGDYTYFEEINKEELEKLELFDCSIQGNKVRCRVVYVDRFGNVVTNLREVKGKGFYFRGVEFPFVKTYSDVDVGKPLSLIGSFGTLELSVREGSAAEMLGIKRGGGWIELEVL	not soluble
MIITVASFKGGVGKTTTAVHLSAYLALQGETLLIDGDPNRSATGWGKRGSLPFKVVDERQAAKYAPKYQNIVIDTQARPEDEDLEALADGCDLLVIPSTPDALALDALILTIETLQKLGNNRFRILLTIIPPYPSKDGDEARQLLTTAGLPLFKRGIKRYSAFQKASLNGVVVSEVSDSKAGIAWSDYKATGKEIVEEILILEHHHHHH	soluble
MTSTKAYVLALAGCTNSGKSTLAKEFQRFFGAGETTIINQDEFYKTENEVEKIYHPDAEHLTDEGYYWSFDEKEAINIDQFRQRILNESKVYKNVIIDGNMITEMDEIVDLCDRIVVMTLDFKTCKRRREARTDYVPADTPGYFVNVAFPAYVRHLERARQRSRTDSRLTFIDVSESKFDDKNKSIVNFRQQILDDHIKLTDEVIDVKVVDQLVSHPSCGAISTFNGVTRDNHGGRDVSNLSYDCHDLMAYKKLRGICAEIRAEYPDVKKIAIFHRLGKVDIGESSVIISTSSPHRKTAIQATEKCIDLLKEHAPIFKYEEYSNGEVDGVWKSNIEDSKQ	not soluble
MIQKTISETSPPPMFSDEEILTEDEIEEYLDNLKSKLPSFVIILLKNNLRGKRVTKKQLDKIVERITEVLSKGRRDDKTEELNKKLQTLEQKLDAIMKLTTMAVSTKTSEEIEKIKTNEKIEIENAPIKIKSEEKPEKPVEIEVSKKKETMDTGKKTETEEKVKEIEVPKPVEKTHEKVEETKTKGEIKKEVKKEVKLKKYELPKESPMGGSFMTPIEEEKEYRLNDIPEDAVSMTLVFKWLEFLISRGGMTYLPDILDYYNKIGWISNRVILKLLRFAKNMKITFDEEELRPRDKLSPSDHIVSLLYIEKLAGRPIDSEILEMLEIEIRRIKKWAIELQSI	not soluble
MGSDKIHHHHHHMKLSFEVLEALDAIDRAGTFAEAAVLIHRVPSALSYLVQKAESDLGVILFDRSGRRAQLTEAGRLLVEDGRRLLQAGRELESKVRGVHAGWEAELRLCLDEILPLPSLWPHVRAFYDMELTTRLRLSTEVLGGVWDALVTGRADIAIGAAGEPPHAPNIAARPIGLLRHVFVVAPHHPLAAVEQPLDSDTISSHRGVIISDTSRALEPRSVAIHDGQPVIIVPTLAAKLDLLCEGMAVGMLPAPVVEEAIRQGKLVERRVIGVRDHTTCYLGWREDKTGRALKWWINRLDQIDLISTLFSTRGVAA	not soluble
MKVKEAMNPEIITVSPETRPLEAFEKMYKHGVRRLFVLEDDGKPVGVVSYTDLIGVLGTIKPDSEHPERDLKVRDIMVDEVITISADDNIEDAANLMLRADISGLLVMDDERPVGVITKTDICRLVAAEILVPS	not soluble
MSKIETPVMTSLQTTAEKMMKDLNVPGAAVAVIKDGEVIISEGFGYRNIETKEAVTPNTRFAIGSSTKAFGTLSLSLLAQQKKFNWDTPIQSYIPNFTLSELLASSQVTGRDLASHRTGVSRHEALWYSSSLSRKDLVEKIKHLPLDAPFRTAFLYNNLMYATISYIVENITNQTWEQYTTEHILEPLNMRHTNFSVNDSQTTDDYALPYIENDGEIKAVPFRNIDTVGAAGCINSTIEDMANWVLLHLNEGKFGDHELISSELLQQMYTPHNSIPDQPVLSLPESPLNSYGLGWFISAYRGKKVIHHGGNIDGFSALVSFIPTENIGLVILTNAGGTLLPTYLANQIYDELLELESIDWHKRAVEDTKKMKEMMKEATESLPEQIKGTTPSHKLEDYTGTFEHPAYGTLQVYKRDDSLYVQFMEMDIQLGHHHYDIFSAKVDLFQMKMSLLFAYEMNVSGEFPSLQLHVPATLSTQPLTFKKIK	not soluble
ASFPFGDFTADTKGTSDIAYSFRNDISGTGGLIKKGGSQLQLHGNNTYTGKTIIEGGSLVLYGNNKSDMRVETKGALIYNGAASGGSLNSDGIVYLADTDQSGANETVHIKGSLQLDGKGTLYTRLGKLLKVDGTAIIGGKLYMSARGKGAGYLNSTGRRVPFLSAAKIGQDYSFFTNIETDGGLLASLDSVEKTAGSEGDTLSYYVRRGNAARTASAAAHSAPAGLKHAVEQGGSNLENLMVELDASESSATPETVETAAADRTDMPGIRPYGATFRAAAAVQHANAADGVRIFNS	not soluble
MAHHHHHHMKPEGAKGAVVSDDVGGDSANLAYCSDRITLLSRADIEAFTCCSNGAGGGGASNSENHNGGCGGLASEAQSVDPCSTLDTCIAALPMFLQSEALVLRRHEQQFRHHMKELVELTECITLLCDGSLRQHAAAVAGQPAEQSADAQRAESAALHRMLHRAEELERYVRAAAVERLRSAQRMVLAASTTKRREKVGRKSAVRPPKATK	not soluble
